Experimental data as given in article doi:10.1101/2023.02.13.525685.

Experiments:
[1] = biological target: RjoGlgAb (GT4 glycosyltransferase GlgAb from Rhodococcus jostii RHA1) (Rhodococcus jostii RHA1); assay: SEC
[2] = biological target: RjoGlgAc (GT4 glycosyltransferase GlgAc from Rhodococcus jostii RHA1) (Rhodococcus jostii RHA1); assay: SEC

| stoichiometry N [2] | Substance | stoichiometry N [1] |
| --- | --- | --- |
|  | RjoGlgAb (GT4 glycosyltransferase GlgAb from Rhodococcus jostii RHA1) (enzyme) | > 15 subunits |
| 2 | RjoGlgAc (GT4 glycosyltransferase GlgAc from Rhodococcus jostii RHA1) (enzyme) |  |
